For experiment [1], the target named is K63-polyubiquitinated Nedd4 (resin-bound GST-Nedd4, autoubiquitinated) (UniProt P46934). Briefly: pull-down.
Experiment [2] has as its target K63-polyubiquitinated Sic1 (UniProt P38634).
Experiment [3] concerns the target K48-linked tetraubiquitin (Homo sapiens) (UniProt P0CG48). The conditions noted are these: cited from earlier work.
Experiment [4] addresses K63-linked tetraubiquitin (Homo sapiens) (UniProt P0CG48). The conditions noted are these: cited from earlier work.

The values that follow come from article PMC3579138.

A value given as a limit tells only on which side of the number the result lay.

Chain of K63-polyubiquitinated Nedd4 (resin-bound GST-Nedd4, autoubiquitinated) (P46934 whole entry): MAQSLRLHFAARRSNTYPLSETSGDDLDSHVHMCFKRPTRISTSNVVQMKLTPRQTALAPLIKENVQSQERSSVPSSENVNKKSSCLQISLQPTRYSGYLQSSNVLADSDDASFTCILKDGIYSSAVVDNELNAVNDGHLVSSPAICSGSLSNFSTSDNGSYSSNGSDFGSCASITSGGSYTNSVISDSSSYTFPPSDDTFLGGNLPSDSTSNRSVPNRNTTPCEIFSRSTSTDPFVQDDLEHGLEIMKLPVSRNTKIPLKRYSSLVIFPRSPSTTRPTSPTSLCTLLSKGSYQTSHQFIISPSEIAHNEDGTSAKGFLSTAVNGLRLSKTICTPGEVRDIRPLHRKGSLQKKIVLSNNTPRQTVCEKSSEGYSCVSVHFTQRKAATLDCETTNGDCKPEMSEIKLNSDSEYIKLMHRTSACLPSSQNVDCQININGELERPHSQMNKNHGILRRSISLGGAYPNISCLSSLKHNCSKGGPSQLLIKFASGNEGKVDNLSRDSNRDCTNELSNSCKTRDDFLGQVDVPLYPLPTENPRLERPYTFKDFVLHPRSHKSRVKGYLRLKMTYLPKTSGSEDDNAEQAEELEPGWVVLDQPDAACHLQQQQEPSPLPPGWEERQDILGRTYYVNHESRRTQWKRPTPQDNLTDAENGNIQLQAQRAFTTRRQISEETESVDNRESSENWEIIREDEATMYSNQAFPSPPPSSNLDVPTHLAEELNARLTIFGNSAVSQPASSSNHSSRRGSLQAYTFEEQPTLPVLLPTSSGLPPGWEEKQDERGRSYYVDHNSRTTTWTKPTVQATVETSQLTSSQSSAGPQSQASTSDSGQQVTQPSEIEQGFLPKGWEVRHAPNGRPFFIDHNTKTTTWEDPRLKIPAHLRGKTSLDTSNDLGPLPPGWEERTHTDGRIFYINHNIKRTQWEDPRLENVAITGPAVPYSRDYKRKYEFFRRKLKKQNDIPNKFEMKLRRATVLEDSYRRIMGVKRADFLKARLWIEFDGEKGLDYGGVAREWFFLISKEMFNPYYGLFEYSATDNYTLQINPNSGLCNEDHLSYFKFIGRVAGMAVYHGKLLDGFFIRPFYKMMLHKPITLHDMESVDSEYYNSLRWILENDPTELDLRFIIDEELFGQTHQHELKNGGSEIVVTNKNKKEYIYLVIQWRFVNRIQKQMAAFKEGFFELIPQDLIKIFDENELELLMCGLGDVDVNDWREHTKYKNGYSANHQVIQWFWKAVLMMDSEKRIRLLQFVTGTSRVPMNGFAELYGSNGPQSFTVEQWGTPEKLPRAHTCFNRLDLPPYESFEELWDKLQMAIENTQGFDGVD
Chain of hHR23A UBA2 (P54725 315-361): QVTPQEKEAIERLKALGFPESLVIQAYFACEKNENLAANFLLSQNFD
Chain of Hrs, purified recombinant (O14964 whole entry): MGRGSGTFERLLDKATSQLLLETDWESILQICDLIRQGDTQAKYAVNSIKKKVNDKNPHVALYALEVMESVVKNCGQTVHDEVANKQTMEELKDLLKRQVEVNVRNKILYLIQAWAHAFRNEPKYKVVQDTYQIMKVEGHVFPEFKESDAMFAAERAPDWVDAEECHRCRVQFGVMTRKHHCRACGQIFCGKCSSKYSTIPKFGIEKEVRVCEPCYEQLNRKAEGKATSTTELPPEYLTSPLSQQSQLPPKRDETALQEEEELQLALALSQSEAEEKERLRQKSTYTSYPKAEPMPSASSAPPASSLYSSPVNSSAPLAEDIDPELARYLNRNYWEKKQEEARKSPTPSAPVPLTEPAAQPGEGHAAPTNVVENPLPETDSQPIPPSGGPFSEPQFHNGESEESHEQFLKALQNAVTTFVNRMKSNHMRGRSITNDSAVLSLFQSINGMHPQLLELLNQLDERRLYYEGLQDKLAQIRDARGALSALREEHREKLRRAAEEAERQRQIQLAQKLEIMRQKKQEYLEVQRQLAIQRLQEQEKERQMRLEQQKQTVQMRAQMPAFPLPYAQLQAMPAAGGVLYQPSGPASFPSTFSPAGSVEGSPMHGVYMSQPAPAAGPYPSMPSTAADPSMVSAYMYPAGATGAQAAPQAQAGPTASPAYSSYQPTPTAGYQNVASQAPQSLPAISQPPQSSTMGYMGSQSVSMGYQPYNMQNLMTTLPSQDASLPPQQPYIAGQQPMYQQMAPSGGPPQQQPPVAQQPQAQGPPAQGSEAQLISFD

In experiment [1], “26S proteasomes purified from rabbit muscle (complex)” returned a percent binding with lysate of cells with Hrs and STAM knocked down of 35%; a percent binding with lysate of control cells of 19%; a percent reduction of binding by the cell extract below 80%.
For “Hrs, purified recombinant (from UniProt O14964 1-777) (natural protein)”, the percent decrease of conjugate binding to proteasomes at 80nM in experiment [2] came out at 80%.
The Kd is the concentration at which binding is half-saturated. On to hHR23A UBA2 (from UniProt P54725), for which the figures for the Kd in experiment [3] and in experiment [4] were 8 µM and 28 µM, respectively.
